Article PMC9482650, “Quantitative fragmentomics allow affinity mapping of interactomes” (Nature Communications, 2022)

T1: SIPA1L2, Q9P2F8
T1 sequence (Q9P2F8 945-1036, limits assumed, looked up): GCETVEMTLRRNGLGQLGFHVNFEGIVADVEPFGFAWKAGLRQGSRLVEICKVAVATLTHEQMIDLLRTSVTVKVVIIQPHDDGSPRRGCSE

T2: SNTG2, Q9NY99
T2 sequence (Q9NY99 68-166, limits assumed, looked up): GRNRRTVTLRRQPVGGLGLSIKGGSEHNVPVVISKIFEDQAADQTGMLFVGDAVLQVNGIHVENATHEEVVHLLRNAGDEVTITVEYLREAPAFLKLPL

T3: MPP7, Q5T2T1
T3 sequence (Q5T2T1 134-230, limits assumed, looked up): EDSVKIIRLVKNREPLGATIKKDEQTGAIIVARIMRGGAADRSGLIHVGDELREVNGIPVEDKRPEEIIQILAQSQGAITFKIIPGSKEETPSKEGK

T4: LNX2_3, Q8N448
T4 sequence (Q8N448 463-564, limits assumed, looked up): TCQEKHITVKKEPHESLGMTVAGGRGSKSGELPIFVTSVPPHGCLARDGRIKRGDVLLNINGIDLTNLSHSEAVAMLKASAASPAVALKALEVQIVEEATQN

T5: MPP2, Q14168
T5 sequence (Q14168 180-250, limits assumed, looked up): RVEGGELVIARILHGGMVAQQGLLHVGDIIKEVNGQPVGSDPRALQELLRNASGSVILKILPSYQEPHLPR

T6: GRIP1_2, Q9Y3R0
T6 sequence (Q9Y3R0 145-248, limits assumed, looked up): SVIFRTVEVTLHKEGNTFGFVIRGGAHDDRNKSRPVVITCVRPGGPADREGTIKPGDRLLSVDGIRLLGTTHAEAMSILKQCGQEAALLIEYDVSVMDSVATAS

T7: CARD11, Q9BXL7
T7 sequence (Q9BXL7 662-765, limits assumed, looked up): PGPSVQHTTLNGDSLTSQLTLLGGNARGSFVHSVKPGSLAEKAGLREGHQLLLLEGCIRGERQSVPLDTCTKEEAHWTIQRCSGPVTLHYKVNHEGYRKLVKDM

T8: DLG3_2, Q92796
T8 sequence (Q92796 221-321, limits assumed, looked up): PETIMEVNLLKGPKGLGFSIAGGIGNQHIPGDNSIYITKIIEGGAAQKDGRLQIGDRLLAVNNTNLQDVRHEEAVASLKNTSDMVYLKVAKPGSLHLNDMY

T9: RHPN1, Q8TCX5
T9 sequence (Q8TCX5 508-602, limits assumed, looked up): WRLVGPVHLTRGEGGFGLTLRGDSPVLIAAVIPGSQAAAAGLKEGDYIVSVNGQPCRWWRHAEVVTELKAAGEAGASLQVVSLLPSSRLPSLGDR

T10: DLG3_3, Q92796
T10 sequence (Q92796 374-475, limits assumed, looked up): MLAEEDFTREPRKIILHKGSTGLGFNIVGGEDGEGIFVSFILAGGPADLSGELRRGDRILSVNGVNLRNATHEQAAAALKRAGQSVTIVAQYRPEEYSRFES

T11: MPP6, Q9NZW5
T11 sequence (Q9NZW5 125-219, limits assumed, looked up): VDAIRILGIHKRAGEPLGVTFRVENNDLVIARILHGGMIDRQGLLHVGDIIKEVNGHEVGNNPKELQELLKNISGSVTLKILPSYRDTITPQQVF


Tests used:
Experiment in all cases: holdup assay
Set-up in all cases: key: below the threshold = too weak to quantify, mostly under pKd 3.1 to 4
Conditions in all cases: plain residues with an end cap or a label only (N-terminal biotin on a linker: ado-ado)
SCRIB_1, Q14160 = target: SCRIB_1, Q14160
Chain of SCRIB_1, Q14160 (Q14160 718-814): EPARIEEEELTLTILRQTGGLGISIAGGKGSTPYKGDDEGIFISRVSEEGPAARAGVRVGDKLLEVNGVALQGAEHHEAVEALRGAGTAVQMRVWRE

SIPA1L2, Q9P2F8 = target: T1, SIPA1L2, Q9P2F8
FRMPD2_2, Q68DX3 = target: FRMPD2_2, Q68DX3
Chain of FRMPD2_2, Q68DX3 (Q68DX3 944-1038): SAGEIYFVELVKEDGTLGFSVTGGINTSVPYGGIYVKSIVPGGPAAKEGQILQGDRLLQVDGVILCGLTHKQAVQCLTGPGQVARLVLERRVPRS

SNTG2, Q9NY99 = target: T2, SNTG2, Q9NY99
Inadl_4, Q8NI35 = target: Inadl_4, Q8NI35
Chain of Inadl_4, Q8NI35 (Q8NI35 547-651): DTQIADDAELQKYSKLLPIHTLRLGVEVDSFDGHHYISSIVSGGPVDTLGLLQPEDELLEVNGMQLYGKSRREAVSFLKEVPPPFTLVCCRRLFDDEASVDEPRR

SCRIB_3, Q14160 = target: SCRIB_3, Q14160
Chain of SCRIB_3, Q14160 (Q14160 999-1103): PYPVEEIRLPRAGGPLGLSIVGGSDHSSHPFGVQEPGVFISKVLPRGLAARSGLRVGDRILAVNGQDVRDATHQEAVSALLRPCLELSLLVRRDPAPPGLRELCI

MPP7, Q5T2T1 = target: T3, MPP7, Q5T2T1
NOS1, P29475 = target: NOS1, P29475
Chain of NOS1, P29475 (P29475 9-101): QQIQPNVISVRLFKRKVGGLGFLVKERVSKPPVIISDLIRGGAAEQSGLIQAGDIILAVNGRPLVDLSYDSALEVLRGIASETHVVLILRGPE

GRIP2_7, Q9C0E4 = target: GRIP2_7, Q9C0E4
Chain of GRIP2_7, Q9C0E4 (Q9C0E4 934-1023): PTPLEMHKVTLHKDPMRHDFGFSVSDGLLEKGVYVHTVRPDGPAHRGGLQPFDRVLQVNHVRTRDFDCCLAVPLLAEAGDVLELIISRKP

LNX2_3, Q8N448 = target: T4, LNX2_3, Q8N448
MPP2, Q14168 = target: T5, MPP2, Q14168
TJP2_1, Q9UDY2 = target: TJP2_1, Q9UDY2
Chain of TJP2_1, Q9UDY2 (Q9UDY2 24-128): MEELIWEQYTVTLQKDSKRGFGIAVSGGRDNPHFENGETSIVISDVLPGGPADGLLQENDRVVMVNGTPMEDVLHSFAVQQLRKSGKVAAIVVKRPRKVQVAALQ

NHERF4_1, Q86UT5-2 = target: NHERF4_1, Q86UT5-2
Chain of NHERF4_1, Q86UT5-2 (Q86UT5 other isoform, or with tags, fused parts or gaps): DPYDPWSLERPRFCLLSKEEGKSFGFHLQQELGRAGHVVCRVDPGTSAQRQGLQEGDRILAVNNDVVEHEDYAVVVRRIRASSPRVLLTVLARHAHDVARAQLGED

GIPC2, Q8TF65 = target: GIPC2, Q8TF65
Chain of GIPC2, Q8TF65 (Q8TF65 112-203): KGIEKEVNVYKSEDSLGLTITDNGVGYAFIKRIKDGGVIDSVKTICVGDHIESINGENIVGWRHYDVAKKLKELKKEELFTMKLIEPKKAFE

GRIP1_2, Q9Y3R0 = target: T6, GRIP1_2, Q9Y3R0
CARD11, Q9BXL7 = target: T7, CARD11, Q9BXL7
GRIP2_5, Q9C0E4 = target: GRIP2_5, Q9C0E4
Chain of GRIP2_5, Q9C0E4 (Q9C0E4 544-642): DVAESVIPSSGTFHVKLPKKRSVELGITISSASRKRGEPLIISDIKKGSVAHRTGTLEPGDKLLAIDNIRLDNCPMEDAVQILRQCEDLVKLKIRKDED

DLG3_2, Q92796 = target: T8, DLG3_2, Q92796
GRIP2_4, Q9C0E4 = target: GRIP2_4, Q9C0E4
Chain of GRIP2_4, Q9C0E4 (Q9C0E4 446-548): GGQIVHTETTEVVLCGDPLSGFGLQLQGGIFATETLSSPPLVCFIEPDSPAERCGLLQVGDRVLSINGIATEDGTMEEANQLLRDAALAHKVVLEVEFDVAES

PDLIM1, O00151 = target: PDLIM1, O00151
Chain of PDLIM1, O00151 (O00151 1-87): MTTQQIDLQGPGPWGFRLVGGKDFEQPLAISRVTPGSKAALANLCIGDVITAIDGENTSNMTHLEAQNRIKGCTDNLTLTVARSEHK

IL16_4, Q14005 = target: IL16_4, Q14005
Chain of IL16_4, Q14005 (Q14005 1229-1329): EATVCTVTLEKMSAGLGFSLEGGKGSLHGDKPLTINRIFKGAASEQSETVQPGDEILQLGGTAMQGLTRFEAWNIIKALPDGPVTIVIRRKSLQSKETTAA

RHPN1, Q8TCX5 = target: T9, RHPN1, Q8TCX5
ARHGEF12, Q9NZN5-2 = target: ARHGEF12, Q9NZN5-2
Chain of ARHGEF12, Q9NZN5-2 (Q9NZN5 other isoform, or with tags, fused parts or gaps): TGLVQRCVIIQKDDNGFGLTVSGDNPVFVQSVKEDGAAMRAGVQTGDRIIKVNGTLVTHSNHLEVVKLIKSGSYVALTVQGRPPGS

PTPN3, P26045 = target: PTPN3, P26045
Chain of PTPN3, P26045 (P26045 505-587): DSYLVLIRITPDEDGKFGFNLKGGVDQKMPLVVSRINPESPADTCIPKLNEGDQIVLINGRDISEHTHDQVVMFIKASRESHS

DLG3_3, Q92796 = target: T10, DLG3_3, Q92796
MPP6, Q9NZW5 = target: T11, MPP6, Q9NZW5

pKd (SCRIB_1, Q14160) | pKd (SIPA1L2, Q9P2F8) | pKd (FRMPD2_2, Q68DX3) | pKd (SNTG2, Q9NY99) | pKd (Inadl_4, Q8NI35) | pKd (SCRIB_3, Q14160) | pKd (MPP7, Q5T2T1) | pKd (NOS1, P29475) | pKd (GRIP2_7, Q9C0E4) | pKd (LNX2_3, Q8N448) | pKd (MPP2, Q14168) | pKd (TJP2_1, Q9UDY2) | pKd (NHERF4_1, Q86UT5-2) | pKd (GIPC2, Q8TF65) | pKd (GRIP1_2, Q9Y3R0) | pKd (CARD11, Q9BXL7) | pKd (GRIP2_5, Q9C0E4) | pKd (DLG3_2, Q92796) | pKd (GRIP2_4, Q9C0E4) | pKd (PDLIM1, O00151) | Binder | further results
3.88 | below the threshold | below the threshold | below the threshold | below the threshold | 3.81 | below the threshold | below the threshold | below the threshold | below the threshold | below the threshold | 3.61 | below the threshold | below the threshold | below the threshold | below the threshold | below the threshold | 4.08 | below the threshold | below the threshold | QNRIITKTDV [SMCHD1, A6NHR9] | pKd (IL16_4, Q14005): below the threshold; pKd (RHPN1, Q8TCX5): below the threshold; pKd (ARHGEF12, Q9NZN5-2): 4.19; pKd (PTPN3, P26045): below the threshold; pKd (DLG3_3, Q92796): below the threshold; pKd (MPP6, Q9NZW5): below the threshold
below the threshold | below the threshold | below the threshold | below the threshold | below the threshold | below the threshold | below the threshold | below the threshold | below the threshold | below the threshold | below the threshold | below the threshold | 4.2 | below the threshold | below the threshold | 3.53 | below the threshold | 3.48 | below the threshold | below the threshold | LGHTPFVDEL [UQCRC2, P22695] | pKd (IL16_4, Q14005): 3.59; pKd (RHPN1, Q8TCX5): below the threshold; pKd (ARHGEF12, Q9NZN5-2): below the threshold; pKd (PTPN3, P26045): 4.1; pKd (DLG3_3, Q92796): below the threshold; pKd (MPP6, Q9NZW5): below the threshold

Further lines, the binder ahead of its results:

Binder | pKd (SCRIB_1, Q14160) | pKd (SIPA1L2, Q9P2F8) | pKd (FRMPD2_2, Q68DX3) | pKd (SNTG2, Q9NY99) | pKd (Inadl_4, Q8NI35) | pKd (SCRIB_3, Q14160) | pKd (MPP7, Q5T2T1) | pKd (NOS1, P29475) | pKd (GRIP2_7, Q9C0E4) | pKd (LNX2_3, Q8N448) | pKd (MPP2, Q14168) | pKd (TJP2_1, Q9UDY2) | pKd (NHERF4_1, Q86UT5-2) | pKd (GIPC2, Q8TF65) | pKd (GRIP1_2, Q9Y3R0) | pKd (CARD11, Q9BXL7) | pKd (GRIP2_5, Q9C0E4) | pKd (DLG3_2, Q92796) | pKd (GRIP2_4, Q9C0E4) | pKd (PDLIM1, O00151) | further results
QYPGSPDSWV [PKP4, Q99569] | 3.91 | below the threshold | 4.34 | 3.62 | below the threshold | 4.48 | below the threshold | 3.78 | 3.96 | below the threshold | below the threshold | 4.25 | 3.57 | 3.5 | below the threshold | below the threshold | 3.58 | 4.13 | below the threshold | 4.14 | pKd (IL16_4, Q14005): below the threshold; pKd (RHPN1, Q8TCX5): 4.26; pKd (ARHGEF12, Q9NZN5-2): 3.54; pKd (PTPN3, P26045): 4.96; pKd (DLG3_3, Q92796): below the threshold; pKd (MPP6, Q9NZW5): below the threshold
GDGLDDEIAV [NOS1AP, O75052] | below the threshold | below the threshold | below the threshold | below the threshold | below the threshold | below the threshold | below the threshold | 3.8 | below the threshold | below the threshold | below the threshold | below the threshold | below the threshold | below the threshold | below the threshold | below the threshold | below the threshold | 4.01 | below the threshold | below the threshold | pKd (IL16_4, Q14005): below the threshold; pKd (RHPN1, Q8TCX5): below the threshold; pKd (ARHGEF12, Q9NZN5-2): below the threshold; pKd (PTPN3, P26045): 3.79; pKd (DLG3_3, Q92796): below the threshold; pKd (MPP6, Q9NZW5): below the threshold
YPKQMPLSQV [FZD8, Q9H461] | below the threshold | below the threshold | below the threshold | below the threshold | below the threshold | below the threshold | below the threshold | below the threshold | below the threshold | below the threshold | below the threshold | below the threshold | below the threshold | below the threshold | below the threshold | below the threshold | below the threshold | below the threshold | below the threshold | below the threshold | pKd (IL16_4, Q14005): below the threshold; pKd (RHPN1, Q8TCX5): 4.34; pKd (ARHGEF12, Q9NZN5-2): 4.09; pKd (PTPN3, P26045): below the threshold; pKd (DLG3_3, Q92796): below the threshold; pKd (MPP6, Q9NZW5): below the threshold
